The target of assay [1] is T1, Mbd2 (endogenous, mouse ESCs) (mouse, UniProt Q9Z2E1 1-414, limits assumed). In words: co-IP with flag beads from ESCs carrying a Flag-tagged Mbd3 transgene, western blot. From the text: FIG. 61A—The present inventors established an ESC line carrying recovery of Flag-tagged Mbd3 transgene inserted in Mbd3^{-/-} ESC line. […] Moreover, Mbd3 interacts with Sall4 pluripotency reprogramming factor in ESCs. […] These assays recapitulate observation in many other cell lines where Mbd2 and Mbd3 form mutually exclusive complexes (Le Guezennec, X. et al. Mol. Cell. Biol. 26, 843-851, 2006; Aguilera, C. et al. Nature 469, 231-235, 2011).
T1 sequence (Q9Z2E1 whole entry): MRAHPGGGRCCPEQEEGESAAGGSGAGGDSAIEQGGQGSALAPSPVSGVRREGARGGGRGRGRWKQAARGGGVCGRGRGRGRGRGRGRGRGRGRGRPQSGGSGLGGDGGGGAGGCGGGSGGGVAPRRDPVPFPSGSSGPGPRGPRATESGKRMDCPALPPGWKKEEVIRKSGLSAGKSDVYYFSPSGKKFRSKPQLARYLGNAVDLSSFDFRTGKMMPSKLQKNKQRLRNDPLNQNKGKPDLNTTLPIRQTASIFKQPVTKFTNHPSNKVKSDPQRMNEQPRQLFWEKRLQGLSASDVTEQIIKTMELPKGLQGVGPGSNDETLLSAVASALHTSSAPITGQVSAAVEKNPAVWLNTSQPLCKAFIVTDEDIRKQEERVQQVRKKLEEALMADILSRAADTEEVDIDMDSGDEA

For assay [2], the target named is T1, Mbd2 (endogenous, mouse ESCs). In words: pull down of Mbd2 from a control ESC line, western blot. Background: In western blotting, separated proteins are transferred to a membrane and probed.
Assay [3] concerns the target T2, Mta2 (endogenous, mouse cells) (mouse, UniProt Q9R190 1-668).
T2 sequence (looked up): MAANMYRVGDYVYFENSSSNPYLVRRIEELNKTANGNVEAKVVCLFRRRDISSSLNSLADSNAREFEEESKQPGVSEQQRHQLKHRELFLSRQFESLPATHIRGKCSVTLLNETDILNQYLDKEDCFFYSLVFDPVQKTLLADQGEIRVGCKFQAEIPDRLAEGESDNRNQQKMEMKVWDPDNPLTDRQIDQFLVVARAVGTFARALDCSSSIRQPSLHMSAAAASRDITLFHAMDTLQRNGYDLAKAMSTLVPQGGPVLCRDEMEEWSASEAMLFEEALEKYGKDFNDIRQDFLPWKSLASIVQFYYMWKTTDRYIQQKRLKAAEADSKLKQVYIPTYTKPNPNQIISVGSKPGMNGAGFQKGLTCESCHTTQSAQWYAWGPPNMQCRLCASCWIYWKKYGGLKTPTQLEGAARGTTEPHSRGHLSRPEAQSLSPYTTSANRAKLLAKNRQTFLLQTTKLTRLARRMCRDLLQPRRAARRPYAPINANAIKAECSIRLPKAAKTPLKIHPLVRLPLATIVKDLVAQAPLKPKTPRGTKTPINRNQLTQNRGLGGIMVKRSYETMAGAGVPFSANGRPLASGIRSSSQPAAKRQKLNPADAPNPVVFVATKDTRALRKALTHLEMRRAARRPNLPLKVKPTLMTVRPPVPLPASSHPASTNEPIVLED
In words: co-IP from a control ESC line, western blot.

B1: Flag-tagged Mbd3 (other)
chain: MERKRWECPALPQGWEREEVPRRSGLSAGHRDVFYYSPSGKKFRSKPQLARYLGGSMDLSTFDFRTGKMLMSKMNKSRQRVRYDSSNQVKGKPDLNTALPVRQTASIFKQPVTKITNHPSNKVKSDPQKAVDQPRQLFWEKKLSGLNAFDIAEELVKTMDLPKGLQGVGPGCTDETLLSAIASALHTSTMPITGQLSAAVEKNPGVWLNTTQPLCKAFMVTDEDIRKQEELVQQVRKRLEEALMADMLAHVEELARDGEAPLDKACAEDDDEEDEEEEEEEPDPDPEMEHV
notes: also called pCaggs-Flag-Mbd3; Flag-tagged Mbd3 transgene; not shown: Flag tag
With B1, the binding result in assay [1] was “no binding”.

B2: Mbd3 (endogenous, mouse cells) (other, UniProt Q9Z2D8 1-285, looked up)
chain: MERKRWECPALPQGWEREEVPRRSGLSAGHRDVFYYSPSGKKFRSKPQLARYLGGSMDLSTFDFRTGKMLMNKMNKSRQRVRYDSSNQVKGKPDLNTALPVRQTASIFKQPVTKITNHPSNKVKSDPQKAVDQPRQLFWEKKLSGLSAFDIAEELVRTMDLPKGLQGVGPGCTDETLLSAIASALHTSTLPITGQLSAAVEKNPGVWLNTAQPLCKAFMVTDDDIRKQEELVQQVRKRLEEALMADMLAHVEELARDGEAPLDKACAEEEEEEEEEEEEPEPERV
B2: the binding result is on record as “no binding” in assay [2] and “binds” in assay [3].
